Laboratory results published in patent publication US8673313B2, “Cell penetrating peptides and its use fused to biomolecules with therapeutic action” (priority 2007, dated 2014).

Columns and labels:
J774 cells = assay: Fluorescence microscopy: internalization of the cargo protein E7 to the cell; type: cell-based; settings: 1.66 μM protein, J774, 37° C., 30 min, 1 hour and 2 hours, FIG. 4
Procedure: Cells J774 grown on sterile glass cover slips of 22 mm overnight at 37° C. and 5% of CO2 with RPMI 1640, 10% inactivated calf fetal serum and 2 mM de glutamine. Then, different glass cover slips incubated with 1.66 μM fusion protein LALF-E7, 1.66 μM of protein E7 and PBS (as negative control) a 37° C. per 30 min, 1 hour and 2 hours. CasKi cells (human cells expressing HPV 16) grown as positive control in the same experimental conditions.
After incubation the cells were washed briefly with PBS and fix cells by 4% paraformaldehide per 20 min at room temperature. Wash in three changes of PBS. The permeabilization of the cells was with 0.5% Tritón X-100 for 15 min a room temperature. Wash in three changes of PBS. Then, the cells were incubating for 1 hour in 1% blocking SFB in PBS at room temperature. Wash in three changes of PBS. Cells were incubated with goat IgG anti E7/HPV 16 polyclonal antibody (Santa Cruz) diluted in PBS 1:50. Wash extensively with PBS. Incubate with anti-goat-fluorescein IgG polyclonal antibody (Santa Cruz) diluted in PBS 1:50 for 45 minutes in a dark chamber. Wash extensively with PBS. Mount cover slip with aqueous mounting medium. Examine using a fluorescence microscope with appropriate filters.

[1] = test system: TC-1 tumor cell line expressing the HPV16 E7 protein; assay: Treatment of established TC-1 tumors in mice, fusion versus mix (Example 9); type: in vivo, Mice C57BL/6; settings: two immunizations every 14 days from day 10, volume at the 30 days, p<0.01 vs LALF+E7, LALF, E7 and PBS, FIG. 8
Procedure: To study whether the antitumor effect of LALF-E7 was associated with the covalent bond of both molecules, we carried out experiments in which mice were treated for LALF and E7, which were mixed at the time prior to their use at equal molarity that would allow a comparison with mice that received the fusion protein LALF-E7.
In this realization, Mice C57BL/6 was inoculated with 2×10^5 cells by subcutaneous injection in right leg in volumes of 0.2 mL. To the 10 days, when all the animals had developed palpable tumors, the animals were assigned arbitrarily to five groups of treatments. Each group included 10 animals.
Two immunizations, every 14 days were made. The group 1 was immunized with the recombinant protein LALF-E7; group 2 with the mix LALF+E7: recombinant protein E7; group 3 with synthetic peptide LALF; group 4 with recombinant protein E7 and group 5 with PBS. The tumor kinetic in the different groups was followed as previously described in the example 8. The volume average of each group +/− the standard deviation at the 30 days is represented in the FIG. 8.

B1: LALF-E7: recombinant fusion of CPP LALF to E7 protein of HPV 16, cysteine per glycine in Rb site (SEQ ID N0. 9 y 10) (protein)
chain: MAEFHYRIKPTFRRLKWKYKGKFWKASHGDTPTLHEYMLDLQPETTDLYGYEQLNDSSEEEDEIDGPAGQAEPDRAHYNIVTFCCKCDSTLRLCVQSTHVDIRTLEDLLMGTLGIVCPICSQKPGSRAHHHHHH
modifications: Artificial Sequence Description Protein fusion CPP LALF-E7
internalization of E7 (fluorescent cells, anti-E7 antibody) (J774 cells): fluorescent cells | effect on volume of established tumors [1]: effects in reducing the volume of tumors
